Test results from publication PMC6925060 (Archives of toxicology, 2017).

Legend:
[1] = target: F-actin (rat, endogenous, 100,000 x g pellet) (rat (endogenous in RMC)) (UniProt P60711); assay: co-sedimentation
[2] = target: human GST-cofilin (human) (UniProt P23528); assay: pull-down
cross-linking [3] = target: the molecule itself; assay: cross-linking
cross-linking [4] = target: the molecule itself; assay: cross-linking; remark: listed apart in the source

Chain of human GST-cofilin (human) (P23528 whole entry): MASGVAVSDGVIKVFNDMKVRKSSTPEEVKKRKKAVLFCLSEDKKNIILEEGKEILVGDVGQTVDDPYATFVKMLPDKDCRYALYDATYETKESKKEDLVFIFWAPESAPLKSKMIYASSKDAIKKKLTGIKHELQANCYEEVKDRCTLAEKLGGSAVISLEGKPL

Molecule: disulfide-crosslinked CAP1 dimer (rat, endogenous, from Cd2+-treated cells) (from UniProt Q08163 1-474) (complex)
- dimer:monomer ratio in the pellet, percent of that in the supernatant [1]: 172%

B1: disulfide-crosslinked CAP1 dimer (rat, endogenous, from Cd2+-treated cells) (complex)
chain: MADMQNLVERLERAVGRLEAVSHTSDMHCGYGDSPSKGAVPYVQAFDSLLANPVAEYLKMSKEIGGDVQKHAEMVHTGLKLERALLVTASQCQQPAGNKLSDLLAPISEQIQEVITFREKNRGSKFFNHLSAVSESIQALGWVALAAKPGPFVKEMNDAAMFYTNRVLKEYRDVDKKHVDWVRAYLSIWTELQAYIKEFHTTGLAWSKTGPVAKELSGLPSGPSVGSGPPPPPPGPPPPPVPTSSGSDDSASRSALFAQINQGESITHALKHVSDDMKTHKNPALKAQSGPVRSGPKPFSAPKPQTSPSPKPATKKEPALLELEGKKWRVENQENVSNLVIDDTELKQVAYIYKCVNTTLQIKGKINSITVDNCKKLGLVFDDVVGIVEIINSRDVKVQVMGKVPTISINKTDGCHAYLSKNSLDCEIVSAKSSEMNVLIPTEGGDFNEFPVPEQFKTLWNGQKLVTTVTEIAG
modifications: intermolecular disulfide crosslink, DTT-sensitive; involves Cys29 (shown by mutagenesis of mouse CAP1)
- dimer:monomer ratio in the pull-down, percent of that in the total lysate [2]: 220%

B2: His-tagged recombinant mouse CAP1 (wild type), from HEK cells (natural protein, UniProt P40124 1-474, looked up)
chain: MADMQNLVERLERAVGRLEAVSHTSDMHCGYGDSPSKGAVPYVQAFDSLLANPVAEYLKMSKEIGGDVQKHAEMVHTGLKLERALLATASQCQQPAGNKLSDLLAPISEQIQEVITFREKNRGSKFFNHLSAVSESIQALGWVALAAKPGPFVKEMNDAAMFYTNRVLKEYRDVDKKHVDWVRAYLSIWTELQAYIKEFHTTGLAWSKTGPVAKELSGLPSGPSVGSGPPPPPPGPPPPPISTSSGSDDSASRSALFAQINQGESITHALKHVSDDMKTHKNPALKAQSGPVRSGPKPFSAPKPQTSPSPKPATKKEPALLELEGKKWRVENQENVSNLVIDDTELKQVAYIYKCVNTTLQIKGKINSITVDNCKKLGLVFDDVVGIVEIINSRDVKVQVMGKVPTISINKTDGCHAYLSKNSLDCEIVSAKSSEMNVLIPTEGGDFNEFPVPEQFKTLWNGQKLVTTVTEIAG
- binding result (cross-linking [3]): binds

B3: adenylyl cyclase-associated protein CAP1 (rat, endogenous, monomer) (natural protein, rat (endogenous in RMC), UniProt Q08163 1-474, looked up)
chain: MADMQNLVERLERAVGRLEAVSHTSDMHCGYGDSPSKGAVPYVQAFDSLLANPVAEYLKMSKEIGGDVQKHAEMVHTGLKLERALLVTASQCQQPAGNKLSDLLAPISEQIQEVITFREKNRGSKFFNHLSAVSESIQALGWVALAAKPGPFVKEMNDAAMFYTNRVLKEYRDVDKKHVDWVRAYLSIWTELQAYIKEFHTTGLAWSKTGPVAKELSGLPSGPSVGSGPPPPPPGPPPPPVPTSSGSDDSASRSALFAQINQGESITHALKHVSDDMKTHKNPALKAQSGPVRSGPKPFSAPKPQTSPSPKPATKKEPALLELEGKKWRVENQENVSNLVIDDTELKQVAYIYKCVNTTLQIKGKINSITVDNCKKLGLVFDDVVGIVEIINSRDVKVQVMGKVPTISINKTDGCHAYLSKNSLDCEIVSAKSSEMNVLIPTEGGDFNEFPVPEQFKTLWNGQKLVTTVTEIAG
- stoichiometry N (cross-linking [4]): 2
